According to patent publication US20240043505A1 (UNIVERSITY OF PITTSBURGH OF THE COMMONWEALTH SYSTEM OF …, published 2024):
Several values for one entry are separate records, joined by “and”; a condition that tells them apart may be missing. Identical values can stand only once.

Legend:
[1] = target: SARS-CoV-2 (Wuhan-Hu-1 strain) spike glycoprotein on pseudotyped virus particles (SARS-CoV-2, UniProt P0DTC2 14-1273); assay: cell-based or functional assay
[2] = target: SARS-CoV-2 Munich strain spike glycoprotein on authentic virus (SARS-CoV-2); assay: cell-based or functional assay
[3] = target: SARS-CoV-2 spike receptor-binding domain (RBD) (SARS-CoV-2, UniProt P0DTC2 319-541); assay: indirect ELISA, RBD coated on plate, 4PL fit
[4] = target: SARS-CoV-2 spike glycoprotein (Wuhan-Hu-1 strain) on pseudotyped virus particles (SARS-CoV-2 (Wuhan-Hu-1 strain), UniProt P0DTC2 14-1273); assay: cell-based or functional assay

| Binder | Pseudo-neut IC50 Luciferase [1] [nM] | ELISA affinity [3] [nM] | further results |
| --- | --- | --- | --- |
| Nb107 (VHH) VHH: HVQLVESGGGLVQAGGSLRLSCAASGRAIGIHRMAWFRQAPGKERAFVAAIQWTGDMPTYADSLKGRFTISADNAKNTVSLQMTSLKPDDTAVYYCAARSATTALYDYWGQGTQVTVSS [Nb107, listing 1 of 2 here] | 0.569 |  | Authentic virus PRNT IC50 [2]: 0.181 nM |
| Nb107 (VHH) VHH: HVQLVESGGGLVQAGGSLRLSCAASGRAIGIHRMAWFRQAPGKERAFVAAIQWTGDMPTYADSLKGRFTISADNAKNTVSLQMTSLKPDDTAVYYCAARSATTALYDYWGQGTQVTVSS [Nb107, listing 2 of 2 here] |  | 0.76 |  |
| Nb105 (VHH) VHH: HVQLVESGGGLVQAGGSLRLSCAVSGRTFSTYGMAWFRQAPGKERDFVATITRSGETTLYADSVKGRFTISRDNAKNTVYLQMNSLKIEDTAVYYCAVRRDSSWGYSRDLFEYDYWGQGTQVTVSS |  | 0.26 |  |
| Nb82 (VHH) VHH: DVQLVESGGGLVQAGGSLGLSCAASGSIFRLTAMGWYRQAPGKQRDLVTTITSAGIPHYADSVKGRFTISRDNAKNTVYLQMNGLKPEDTAVYYCYANTLNSQLLPRAYWGQGTQVTVSS [Nb82, listing 1 of 2 here] | 12.2 |  |  |
| Nb82 (VHH) VHH: DVQLVESGGGLVQAGGSLGLSCAASGSIFRLTAMGWYRQAPGKQRDLVTTITSAGIPHYADSVKGRFTISRDNAKNTVYLQMNGLKPEDTAVYYCYANTLNSQLLPRAYWGQGTQVTVSS [Nb82, listing 2 of 2 here] |  | 0.86 |  |
| Nb102 (VHH) VHH: QVQLVESGGGLVQAGGSLRLSCAASGRTFSNSHMGWFRQAPGKEREFVAVISRSGGSTLYADSVKGRFTISRDNAKNTVYLQMNSLKPEDTAVYYCAASRTAGLTSNRSLYDYWGRGTQVTVSS [Nb102, listing 1 of 2 here] |  |  | Pseudo-neutralization (GFP) [1]: 0.5 µM and 3 µM |
| Nb102 (VHH) VHH: QVQLVESGGGLVQAGGSLRLSCAASGRTFSNSHMGWFRQAPGKEREFVAVISRSGGSTLYADSVKGRFTISRDNAKNTVYLQMNSLKPEDTAVYYCAASRTAGLTSNRSLYDYWGRGTQVTVSS [Nb102, listing 2 of 2 here] |  | 28.4 |  |
| Nb28 (VHH) VHH: HVQLVESGGGLVQAGGSLRLSCAASGRTFSTSTMDMGWFRQAPGKEREFVGADSWNDGRTYYADSVKGRFTISRDNAKNTLYLQMNNLKPEDTAVYYCAAETYSLYEKSDSWGYWGQGTQVTVSS [Nb28, listing 1 of 2 here] |  | 0.92 | Pseudo-neutralization IC50 (Luciferase) [4]: 6 nM |
| Nb36 (VHH) VHH: HVQLVESGGGLVQAGGSLTLTCAASGRTFSSETMDMGWFRQAPGKEREFVAADSWNDGSTYYADSVKGRFTISRDSAKNTLYLQMNSLKPEDTAVYYCAAETYSIYEKDDSWGYWGQGTQVTVSS |  | 1.04 | Pseudo-neutralization IC50 (Luciferase) [4]: 7 nM |
| Nb28 (VHH) VHH: HVQLVESGGGLVQAGGSLRLSCAASGRTFSTSTMDMGWFRQAPGKEREFVGADSWNDGRTYYADSVKGRFTISRDNAKNTLYLQMNNLKPEDTAVYYCAAETYSLYEKSDSWGYWGQGTQVTVSS [Nb28, listing 2 of 2 here] | 6.12 |  |  |
| Nb48 (VHH) VHH: HVQLVESGGGLVQAGGSLRLSCAASGSIFRHYNMGWFRQAPGKEREFVSAISWTNIGTYYADSVKGRFSISRDNNRNTAYLEMNSLKPEDTAVYYCAADRSEFGSRLYSDENEYDYWGQGTQVTVSS [Nb48, listing 1 of 2 here] |  | 1.08 | Pseudo-neutralization (GFP) [4]: 500 nM |
| Nb48 (VHH) VHH: HVQLVESGGGLVQAGGSLRLSCAASGSIFRHYNMGWFRQAPGKEREFVSAISWTNIGTYYADSVKGRFSISRDNNRNTAYLEMNSLKPEDTAVYYCAADRSEFGSRLYSDENEYDYWGQGTQVTVSS [Nb48, listing 2 of 2 here] |  |  | Pseudo-neutralization (GFP) [1]: 0.5 µM and 3 µM |
| Nb93 (VHH) VHH: EVQLVESGGGLVQPGGSLRLSCAASGFTFSSYAMSWVRQAPGKGREWVAGITPGSGTFYADSVKGRFTISRDNAKNTLSLEINSLKPEDTALYYCAKCRQEFSWDFSSRDPDDFDYWGQGTQVTVSS | 14.5 |  |  |
| Nb90 (VHH) VHH: HVQLVESGGGLVQAGGSLRLSCAVSGRTVSSYVMGWFRQAPGKEREFVAGIGRTGMTITADSVKGRFTISRDNAKNLVYLQMNSLKSEDTAVYWCAAGVRDFAPRIDSYDYWGQGTQVTVSS |  |  | Pseudo-neutralization (GFP) [1]: > 3 µM |
| Nb6 (VHH) VHH: HVQLVESGGGLVQAGGSLRLSCAASGRTFSTHATGWFRQAPGKEREFLATSVWLDDISRDSTYYAESVKGRFSISRDNAKDTVYLQMNSLKPEDTAVYYCAVKQRVGPGIMSAPTYDYWGQGTQVTVSS |  |  | Pseudo-neutralization (GFP) [1]: > 3 µM |
| Nb97 (VHH) VHH: HVQLVESGGGLVQAGGSLRLSCAAPGRTFSTSAMGWFRQAPGKEREFVAAIDWSNTNIHYADTVKGRFTISTDTAKNTVYLQMNNLKPEDTAVYYCAQGGWGLTQPISVDYWGKGTQVTVSS |  | 0.32 |  |
| Nb96 (VHH) VHH: HVQLVESGGGLVQAGDSLRLSCAASGRDFSSYAMGWFRQAPGKEREFVGVISSGDVGTFYEDSVKGRFTISRDDAKNTVDLQMNSLKPEDTAVYYCAAALYVTSTRGSYAYWGQGTQVTVSS |  | 0.04 |  |
| Nb66 (VHH) VHH: HVQLVESGGGLVQAGGSLRLSCAASGRTFSVNSIAWFRQAPGKEREFVATINWSGGDIYYADSVKGRFTISRDNGKNTVYLQMNSLKPTDTAVYYCAAARFYGRSIAQDYDSWGQGTQVTVSS |  | 0.33 |  |
| Nb64 (VHH) VHH: QVQLVESGGGLVQAGGSLRLSCAVSGRTFSIAGMGWFRQAPGKDREFLGGITWNDGTTWYADSVKGRFTISRDNAKNMLSLRMNSLKPEDTAVYYCAAGPRLGSTPRAYDYWGQGTQVTVSS [Nb64, listing 1 of 2 here] | 4.13 |  | Authentic virus PRNT IC50 [2]: 4.88 nM |
| Nb64 (VHH) VHH: QVQLVESGGGLVQAGGSLRLSCAVSGRTFSIAGMGWFRQAPGKDREFLGGITWNDGTTWYADSVKGRFTISRDNAKNMLSLRMNSLKPEDTAVYYCAAGPRLGSTPRAYDYWGQGTQVTVSS [Nb64, listing 2 of 2 here] |  | 0.45 |  |
| Nb11 (VHH) VHH: HVQLVESGGGLVQAGGSLRLSCAVSGASAERVGWFRRAPGKEREFVAAIGANGGSTNYLDSVKGRFTISRDNAKNTVYLQMNSLKPQDTAVYYCAARNLETFDYTYWGRGTQVTVSS | 1.08 |  | Authentic virus PRNT IC50 [2]: 0.8 nM |
| Nb78 (VHH) VHH: QVQLVESGGGLVQAGGSLRLSCAISGASANRVGWFRRAPGKEREFVAAIGASGGMTNYLDSVKGRFTISRDNAKNTVYLQMNSLKPQDTAVYYCAARNIETAEYTYWGQGTQVTVSS | 0.509 |  | Authentic virus PRNT IC50 [2]: 0.766 nM |
| Nb16 (VHH) VHH: DVQLVESGGGLVQAGESLRLSCAASGDMFSSNAMAWYRQAPGKQRELVASITSGGNTNYADSVKGRFTISRDNAKNTVYLQMDSLKPEDTAVYYCNGVAYDYSWGRPRNFWGQGTQVTVSS | 1.57 |  | Authentic virus PRNT IC50 [2]: 1.23 nM |
| Nb92 (VHH) VHH: HVQLVESGGGLVQAGGSLRLSCAASGRTFSAYGMGWFRQAPGKEREFVAGIARSGSEYYGDSVKGRFTISRDNAKNTVYLQMASLKAEDTGVYYCAADPTILYHALSQRTQNYRYWGPGTQVTVSS |  |  | Pseudo-neutralization (GFP) [1]: > 3 µM |
| Nb94 (VHH) VHH: QVQLVESGGGLVQAGGSLRLSCTASGGTFRSFTMAWFRQAPGKEREFVATLSWTGVGTYYADSVKGRFTISRDIAKNTVYLEMNSLIPEDTAVYYCAASPYTYSLLSRTGDYGYWGQGTQVTVSS |  | 0.5 |  |
| Nb9 (VHH) VHH: HVQLVESGGGLVQTGGSLRLSCAFSGYTFSTFPTAWFRQAPGKEREFVAGIRWNGGSRDYTEYADFVKGRFTISRDNAKNMIYLQMISLKPEDTALYYCAASHGVVDGTSVNGYRYWGQGTQVTVSS | 1.5 |  | Authentic virus PRNT IC50 [2]: 1.72 nM |
| Nb95 (VHH) VHH: QVQLVESGGGLVQAGGSLRLSCAASGRTFSSYSMGWFRQAQGKEREFVATINGNGRDTYYTNSVKGRFTISRDDATNTVYLQMNSLKPEDTAIYYCAADKDVYYGYTSFPNEYEYWGQGTQVTVSS |  | 2.28 |  |
| Nb83 (VHH) VHH: HVQLVESGGGLVQPGGSLRLSCAASGRSFNSYLMGWFRQAPGKEREFVAWISGSPHDIIRYRDSVKDRFTISRDNAKNTVYLQMNSLKPVDTAVYYCAVGSLRVGSFSPDYWGQGTQVTVSS |  | 1.51 |  |
| Nb99 (VHH) VHH: QVQLVESGGGLVQTGGSLRLSCAASGSTRSIWYSGWYRQAPGKQRELVASLTSGGTTYYPDSMKGRFTISGSSGLNMVYLQMNSLRPEDTAVYSCNVRTGSGVYWGQGTQVTVSS [Nb99, listing 1 of 2 here] | 0.524 |  | Authentic virus PRNT IC50 [2]: 0.452 nM |
| Nb99 (VHH) VHH: QVQLVESGGGLVQTGGSLRLSCAASGSTRSIWYSGWYRQAPGKQRELVASLTSGGTTYYPDSMKGRFTISGSSGLNMVYLQMNSLRPEDTAVYSCNVRTGSGVYWGQGTQVTVSS [Nb99, listing 2 of 2 here] |  | 0.35 |  |
